The target of this test is T1, Recombinant His-tagged WASp (mouse, UniProt P70315 1-520).
T1 sequence (looked up): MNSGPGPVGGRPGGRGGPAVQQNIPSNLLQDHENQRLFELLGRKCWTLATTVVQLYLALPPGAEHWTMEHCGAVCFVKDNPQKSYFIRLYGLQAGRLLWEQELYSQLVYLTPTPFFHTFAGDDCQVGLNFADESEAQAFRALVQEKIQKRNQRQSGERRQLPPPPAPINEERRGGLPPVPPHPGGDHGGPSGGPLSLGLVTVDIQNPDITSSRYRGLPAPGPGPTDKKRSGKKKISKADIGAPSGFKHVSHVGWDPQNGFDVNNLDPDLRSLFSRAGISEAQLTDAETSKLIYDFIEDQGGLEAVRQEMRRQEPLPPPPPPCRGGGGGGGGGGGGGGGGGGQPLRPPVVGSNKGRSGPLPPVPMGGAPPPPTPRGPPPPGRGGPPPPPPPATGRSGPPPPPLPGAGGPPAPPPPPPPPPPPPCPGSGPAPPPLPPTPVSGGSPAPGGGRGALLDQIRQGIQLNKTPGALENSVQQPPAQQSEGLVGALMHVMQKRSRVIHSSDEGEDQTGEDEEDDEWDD
The test is described as follows: pull-down.

B1: GST fusion protein of the Skap2 SH3 domain (domain or fragment, mouse, UniProt Q3UND0 296-357, looked up)
chain: DYANFYQGLWDCTGALSDELSFKRGDVIYILSKEYNRYGWWVGEMKGAIGLVPKAYLMEMYD
For B1, the binding result was “binds”.

The values above are taken from publication PMC5339670 (The Journal of Experimental Medicine, 2017).
